Source: paper PMC6925320

The substances below were run against trypsin-activated CDTb (cell-binding component of the C. difficile transferase toxin), oligomer (Clostridioides difficile strain R20291) (UniProt Q9KH41) (assay: cryo-EM structure).

In the case of “trypsin-activated CDTb (cell-binding component of the C. difficile transferase toxin), oligomer (from UniProt Q9KH41 43-876) (natural protein)”, the stoichiometry N is reported as 7.

What follows are substances tested against lipolysis-stimulated lipoprotein receptor (LSR) on Caco-2 cells (human (endogenous in Caco-2)) (UniProt Q86X29) (assay: flow cytometry on cells).
Sequence of UniProt Q86X29 (Q86X29 whole entry): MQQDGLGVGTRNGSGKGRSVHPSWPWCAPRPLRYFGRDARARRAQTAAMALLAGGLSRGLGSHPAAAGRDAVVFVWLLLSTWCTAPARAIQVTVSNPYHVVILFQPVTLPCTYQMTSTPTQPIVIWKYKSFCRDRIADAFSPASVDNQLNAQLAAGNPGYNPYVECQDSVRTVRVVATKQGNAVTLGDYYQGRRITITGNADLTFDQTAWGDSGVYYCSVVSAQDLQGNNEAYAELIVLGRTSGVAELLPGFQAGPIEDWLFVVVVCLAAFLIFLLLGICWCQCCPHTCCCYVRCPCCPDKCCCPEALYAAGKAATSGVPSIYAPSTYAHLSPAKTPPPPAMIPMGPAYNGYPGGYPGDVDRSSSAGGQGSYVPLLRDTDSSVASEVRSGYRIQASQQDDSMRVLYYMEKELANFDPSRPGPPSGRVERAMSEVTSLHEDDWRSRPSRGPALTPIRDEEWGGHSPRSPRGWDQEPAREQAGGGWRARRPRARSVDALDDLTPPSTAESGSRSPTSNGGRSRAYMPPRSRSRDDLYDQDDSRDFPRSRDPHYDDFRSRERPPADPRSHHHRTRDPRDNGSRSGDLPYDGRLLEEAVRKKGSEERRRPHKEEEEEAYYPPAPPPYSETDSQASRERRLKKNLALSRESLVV

“Alexa-647-labeled CDTb F774D (from UniProt Q9KH41 43-876) (natural protein)” and “Alexa-647-labeled CDTb I852E (from UniProt Q9KH41 43-876) (natural protein)” cannot be ordered by Kd: > 50 nM for the first, 75 nM for the second.

Going from “Alexa-647-labeled CDTb T854E (from UniProt Q9KH41 43-876) (natural protein)” to “Alexa-647-labeled CDTb Y812D (from UniProt Q9KH41 43-876) (natural protein)”, the Kd falls from 38 nM to 3.9 nM (9.7-fold).

“Alexa-647-labeled CDTb, wild type (from UniProt Q9KH41 43-876) (natural protein)” was tested, and the Kd was 4.5 nM.
